B1: DNA repair and telomere maintenance protein nbs1 (Schizosaccharomyces pombe (strain ATCC 38366 / 972)), O43070 (parent)
chain: MWIIEAEGDILKGKSRILFPGTYIVGRNVSDDSSHIQVISKSISKRHARFTILTPSEKDYFTGGPCEFEVKDLDTKFGTKVNEKVVGQNGDSYKEKDLKIQLGKCPFTINAYWRSMCIQFDNPEMLSQWASNLNLLGIPTGLRDSDATTHFVMNRQAGSSITVGTMYAFLKKTVIIDDSYLQYLSTVKESVIEDASLMPDALECFKNIIKNNDQFPSSPEDCINSLEGFSCAMLNTSSESHHLLELLGLRISTFMSLGDIDKELISKTDFVVLNNAVYDSEKISFPEGIFCLTIEQLWKIIIERNSRELISKEIERLKYATASNSTPQKIIQPQRHIQKNIVDDLFSVKKPLPCSPKSKRVKTLENLSIMDFVQPKQMFGKEPEGYLSNQSNNGSAQNKKSGDNSEKTKNSLKSSSKKSANTGSGQGKTKVEYVSYNSVDKGNSSPFKPLELNVVGEKKANAEVDSLPSENVQESEDDKAFEENRRLRNLGSVEYIRIMSSEKSNANSRHTSKYYSGRKNFKKFQKKASQKAPLQAFLSLSEHKKTEVFDQDDTDLEPVPRLMSKVESIPAGASSDKSGKSSISKKSSNSFKELSPKTNNDEDDEFNDLKFHF
B2: DNA endonuclease ctp1 (Schizosaccharomyces pombe (strain ATCC 38366 / 972)), O74986 (parent)
chain: MNEEEHNKSVHWSIVYRQLGNLLEQYEVEIARLKSQLVLEKKLRIQVEKELESVKTKQISSSASSKVSSNTIQELDSTTDEDEIPGSDTVDEEDPSLNAPFSEKNQSVKIPPHSPTLPVQNASAFVKPISVPLGNVKEEKFLDTNPIGAESFESSDGEMHLRARSPEDMILLRETQPLAPLDINTLGVSDNRQKKGTEKKRPFEPEFLNDDVIRGNKRKALPAYECPDCQKFYELHGPVKESSVAPTWNDENRLGGGSLPNCKHQPLVQKVGRHRKLNIPKPIPNGFWESDFVD
partner: B1 chain
B3: Nibrin (Homo sapiens), O60934 (parent)
chain: MWKLLPAAGPAGGEPYRLLTGVEYVVGRKNCAILIENDQSISRNHAVLTANFSVTNLSQTDEIPVLTLKDNSKYGTFVNEEKMQNGFSRTLKSGDGITFGVFGSKFRIEYEPLVACSSCLDVSGKTALNQAILQLGGFTVNNWTEECTHLVMVSVKVTIKTICALICGRPIVKPEYFTEFLKAVESKKQPPQIESFYPPLDEPSIGSKNVDLSGRQERKQIFKGKTFIFLNAKQHKKLSSAVVFGGGEARLITEENEEEHNFFLAPGTCVVDTGITNSQTLIPDCQKKWIQSIMDMLQRQGLRPIPEAEIGLAVIFMTTKNYCDPQGHPSTGLKTTTPGPSLSQGVSVDEKLMPSAPVNTTTYVADTESEQADTWDLSERPKEIKVSKMEQKFRMLSQDAPTVKESCKTSSNNNSMVSNTLAKMRIPNYQLSPTKLPSINKSKDRASQQQQTNSIRNYFQPSTKKRERDEENQEMSSCKSARIETSCSLLEQTQPATPSLWKNKEQHLSENEPVDTNSDNNLFTDTDLKSIVKNSASKSHAAEKLRSNKKREMDDVAIEDEVLEQLFKDTKPELEIDVKVQKQEEDVNVRKRPRMDIETNDTFSDEAVPESSKISQENEIGKKRELKEDSLWSAKEISNNDKLQDDSEMLPKKLLLTEFRSLVIKNSTSRNPSGINDDYGQLKNFKKFKKVTYPGAGKLPHIIGGSDLIAHHARKNTELEEWLRQEMEVQNQHAKEESLADDLFRYNPYLKRRR

Variants of: B1
Settings: with mdc1_human MDC1, Q14676
Target sequence in this assay (Q14676 whole entry): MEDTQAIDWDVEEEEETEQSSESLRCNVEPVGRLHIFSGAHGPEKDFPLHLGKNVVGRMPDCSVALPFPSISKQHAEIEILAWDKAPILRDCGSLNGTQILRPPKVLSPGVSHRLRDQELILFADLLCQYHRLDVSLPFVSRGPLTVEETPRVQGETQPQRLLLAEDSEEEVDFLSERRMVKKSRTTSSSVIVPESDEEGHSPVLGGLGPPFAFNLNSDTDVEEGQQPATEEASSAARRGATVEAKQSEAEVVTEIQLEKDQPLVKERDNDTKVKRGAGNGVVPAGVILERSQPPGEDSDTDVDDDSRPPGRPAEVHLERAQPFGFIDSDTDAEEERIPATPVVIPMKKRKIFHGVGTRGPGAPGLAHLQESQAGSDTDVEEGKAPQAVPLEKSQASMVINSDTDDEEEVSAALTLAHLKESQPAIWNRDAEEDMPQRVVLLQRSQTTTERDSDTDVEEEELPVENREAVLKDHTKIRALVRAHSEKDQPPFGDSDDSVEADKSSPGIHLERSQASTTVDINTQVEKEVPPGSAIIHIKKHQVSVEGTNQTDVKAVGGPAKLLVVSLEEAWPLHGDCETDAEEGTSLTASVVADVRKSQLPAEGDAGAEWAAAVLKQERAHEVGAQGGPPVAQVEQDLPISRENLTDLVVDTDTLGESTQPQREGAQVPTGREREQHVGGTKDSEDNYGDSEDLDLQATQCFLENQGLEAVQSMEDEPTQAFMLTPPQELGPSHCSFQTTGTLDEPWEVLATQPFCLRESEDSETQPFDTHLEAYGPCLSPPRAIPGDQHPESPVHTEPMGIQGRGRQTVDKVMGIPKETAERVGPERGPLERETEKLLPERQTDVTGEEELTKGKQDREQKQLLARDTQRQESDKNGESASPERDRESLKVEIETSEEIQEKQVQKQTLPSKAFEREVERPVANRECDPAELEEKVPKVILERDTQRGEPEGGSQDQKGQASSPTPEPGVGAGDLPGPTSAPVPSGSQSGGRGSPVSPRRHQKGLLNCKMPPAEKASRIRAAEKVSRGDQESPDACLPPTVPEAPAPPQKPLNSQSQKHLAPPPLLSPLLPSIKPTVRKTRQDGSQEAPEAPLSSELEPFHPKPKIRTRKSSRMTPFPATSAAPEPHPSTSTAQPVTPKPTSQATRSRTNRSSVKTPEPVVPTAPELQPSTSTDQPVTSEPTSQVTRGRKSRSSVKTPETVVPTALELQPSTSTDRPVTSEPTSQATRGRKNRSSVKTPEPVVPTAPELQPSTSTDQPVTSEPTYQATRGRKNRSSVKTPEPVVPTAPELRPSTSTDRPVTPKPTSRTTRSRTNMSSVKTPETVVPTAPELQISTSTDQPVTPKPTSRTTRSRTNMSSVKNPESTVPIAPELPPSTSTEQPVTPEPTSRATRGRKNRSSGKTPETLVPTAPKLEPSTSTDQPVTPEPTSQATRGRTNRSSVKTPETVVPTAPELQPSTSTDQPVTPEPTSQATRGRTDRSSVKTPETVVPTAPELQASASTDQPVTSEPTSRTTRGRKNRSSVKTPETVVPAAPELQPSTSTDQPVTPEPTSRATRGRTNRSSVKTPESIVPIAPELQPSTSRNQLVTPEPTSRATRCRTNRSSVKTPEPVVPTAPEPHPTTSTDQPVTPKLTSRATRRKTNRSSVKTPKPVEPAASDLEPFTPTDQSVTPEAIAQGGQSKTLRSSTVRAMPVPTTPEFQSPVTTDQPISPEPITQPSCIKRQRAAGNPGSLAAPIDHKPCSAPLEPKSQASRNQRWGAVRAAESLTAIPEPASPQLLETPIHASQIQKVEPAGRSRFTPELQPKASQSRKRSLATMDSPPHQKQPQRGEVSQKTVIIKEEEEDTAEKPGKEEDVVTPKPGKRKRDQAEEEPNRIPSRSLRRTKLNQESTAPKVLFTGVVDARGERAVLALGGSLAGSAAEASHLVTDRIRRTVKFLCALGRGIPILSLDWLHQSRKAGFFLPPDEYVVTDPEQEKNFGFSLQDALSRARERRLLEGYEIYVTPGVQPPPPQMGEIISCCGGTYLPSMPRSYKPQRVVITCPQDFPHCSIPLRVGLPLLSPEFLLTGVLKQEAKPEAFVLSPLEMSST

| Variant | effect of a mutation on the interaction |
| --- | --- |
| K76A | decreasing interaction |
| G103D | decreasing interaction |
| K45A | decreasing interaction |

Variants of: B2
Settings: with nbs1_schpo nbs1, O43070

| Variant | effect of a mutation on the interaction |
| --- | --- |
| D76A | increasing interaction |

Variants of: B3
Settings: with mdc1_human MDC1, Q14676
Target sequence in this assay (Q14676 whole entry): as above

| Variant | effect of a mutation on the interaction |
| --- | --- |
| S42A;K160M | disrupting interaction |
| K160M | decreasing interaction |
| S42A | decreasing interaction |
| R28A | decreasing interaction |

Source: IntAct's records for PubMed 19804756
